Molecular target: H-2Kb, peptide-free ('empty') MHC class I molecule on RMA-S cells (mouse | mouse (endogenous in RMA-S))
Assay: MHC stabilization assay

## SIINFEKL, CTL epitope derived from ovalbumin (peptide)
  SI (stabilization index): 450 to 500

— paper PMC2192062
